B1: GpH7-A5/GpH7-B3 variant A327_09D/GpL16-k0 (antibody, human IgG1, kappa)
heavy 1: not shown
heavy 2: not shown
light: DIVMTQSPLSLPVTPGEPASISCQASESLVHSNRNTYLHWYLQKPGQSPQLLIYKVSNRFSGVPDRFSGSGSGTDFTLKISRVEAEDVGVYYCSQNTHVPPTFGQGTKVEIERTVAAPSVFIFPPSDEQLKSGTASVVCLLNNFYPREAKVQWKVDNALQSGNSQESVTEQDSKDSTYSLSSTLTLSKADYEKHKVYACEVTHQGLSSPVTKSFNRGEC
notes: also called He Ab A327_09D
B2: GpH7-A5/GpH7-B3 variant I336_18N/GpL16-k0 (antibody, human IgG1, kappa)
heavy 1: not shown
heavy 2: not shown
light: B1 light
notes: also called He Ab I336_18N
B3: GpH7-A5/GpH7-B3 variant I336_10E/GpL16-k0 (antibody, human IgG1, kappa)
heavy 1: not shown
heavy 2: not shown
light: B1 light
notes: also called He Ab I336_10E
B4: GpH7-A5/GpH7-B3 variant K326_07I/GpL16-k0 (antibody, human IgG1, kappa)
heavy 1: not shown
heavy 2: not shown
light: B1 light
notes: also called He Ab K326_07I
B5: GpH7-A5/GpH7-B3 variant A330_19Q/GpL16-k0 (antibody, human IgG1, kappa)
heavy 1: not shown
heavy 2: not shown
light: B1 light
notes: also called He Ab A330_19Q
B6: GpH7-A5/GpH7-B3 variant K326_01G/GpL16-k0 (antibody, human IgG1, kappa)
heavy 1: not shown
heavy 2: not shown
light: B1 light
notes: also called He Ab K326_01G
B7: GpH7-A5/GpH7-B3 variant E333_08L/GpL16-k0 (antibody, human IgG1, kappa)
heavy 1: not shown
heavy 2: not shown
light: B1 light
notes: also called He Ab E333_08L
B8: GpH7-A5/GpH7-B3 variant G236_15Y/GpL16-k0 (antibody, human IgG1, kappa)
heavy 1: not shown
heavy 2: not shown
light: B1 light
notes: also called He Ab G236_15Y
B9: GpH7-A5/GpH7-B3 variant E333_14T/GpL16-k0 (antibody, human IgG1, kappa)
heavy 1: not shown
heavy 2: not shown
light: B1 light
notes: also called He Ab E333_14T
B10: GpH7-A5/GpH7-B3 variant I336_03V/GpL16-k0 (antibody, human IgG1, kappa)
heavy 1: not shown
heavy 2: not shown
light: B1 light
notes: also called He Ab I336_03V
B11: GpH7-A5/GpH7-B3 variant E333_13S/GpL16-k0 (antibody, human IgG1, kappa)
heavy 1: not shown
heavy 2: not shown
light: B1 light
notes: also called He Ab E333_13S
B12: GpH7-A5/GpH7-B3 variant G236_04F/GpL16-k0 (antibody, human IgG1, kappa)
heavy 1: not shown
heavy 2: not shown
light: B1 light
notes: also called He Ab G236_04F
B13: GpH7-A5/GpH7-B3 variant E333_04F/GpL16-k0 (antibody, human IgG1, kappa)
heavy 1: not shown
heavy 2: not shown
light: B1 light
notes: also called He Ab E333_04F
B14: GpH7-A5/GpH7-B3 variant G236_14T/GpL16-k0 (antibody, human IgG1, kappa)
heavy 1: not shown
heavy 2: not shown
light: B1 light
notes: also called He Ab G236_14T
B15: GpH7-B3 variant T335_19Q/GpL16-k0 (antibody, human IgG1, kappa)
heavy: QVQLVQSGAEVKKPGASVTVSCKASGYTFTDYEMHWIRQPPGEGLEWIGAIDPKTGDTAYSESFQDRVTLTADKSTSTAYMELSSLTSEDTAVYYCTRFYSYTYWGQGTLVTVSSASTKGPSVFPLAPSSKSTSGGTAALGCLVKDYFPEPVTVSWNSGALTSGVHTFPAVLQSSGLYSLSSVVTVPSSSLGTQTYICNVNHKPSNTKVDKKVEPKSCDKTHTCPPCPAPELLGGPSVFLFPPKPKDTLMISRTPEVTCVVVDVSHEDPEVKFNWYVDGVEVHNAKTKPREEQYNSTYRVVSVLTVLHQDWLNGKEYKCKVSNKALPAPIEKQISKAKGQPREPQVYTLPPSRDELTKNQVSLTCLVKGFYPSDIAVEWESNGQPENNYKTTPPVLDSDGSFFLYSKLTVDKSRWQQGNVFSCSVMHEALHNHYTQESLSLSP
light: B1 light
notes: also called Ho Ab T335_19Q
B16: GpH7-B3 variant T335_01G/GpL16-k0 (antibody, human IgG1, kappa)
heavy: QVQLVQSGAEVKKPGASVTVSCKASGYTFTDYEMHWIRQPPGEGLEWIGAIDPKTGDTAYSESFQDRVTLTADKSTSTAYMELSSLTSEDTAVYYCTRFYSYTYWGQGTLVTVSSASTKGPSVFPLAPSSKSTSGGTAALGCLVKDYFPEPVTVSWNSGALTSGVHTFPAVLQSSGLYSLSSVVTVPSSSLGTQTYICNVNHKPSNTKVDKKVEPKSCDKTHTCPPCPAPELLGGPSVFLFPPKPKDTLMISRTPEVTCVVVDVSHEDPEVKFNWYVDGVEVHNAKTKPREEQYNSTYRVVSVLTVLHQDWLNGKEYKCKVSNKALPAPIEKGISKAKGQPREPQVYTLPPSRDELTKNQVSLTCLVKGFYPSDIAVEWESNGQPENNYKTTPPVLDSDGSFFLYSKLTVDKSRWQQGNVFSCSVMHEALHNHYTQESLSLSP
light: B1 light
notes: also called Ho Ab T335_01G
B17: GpH7-B3 variant T335_07I/GpL16-k0 (antibody, human IgG1, kappa)
heavy: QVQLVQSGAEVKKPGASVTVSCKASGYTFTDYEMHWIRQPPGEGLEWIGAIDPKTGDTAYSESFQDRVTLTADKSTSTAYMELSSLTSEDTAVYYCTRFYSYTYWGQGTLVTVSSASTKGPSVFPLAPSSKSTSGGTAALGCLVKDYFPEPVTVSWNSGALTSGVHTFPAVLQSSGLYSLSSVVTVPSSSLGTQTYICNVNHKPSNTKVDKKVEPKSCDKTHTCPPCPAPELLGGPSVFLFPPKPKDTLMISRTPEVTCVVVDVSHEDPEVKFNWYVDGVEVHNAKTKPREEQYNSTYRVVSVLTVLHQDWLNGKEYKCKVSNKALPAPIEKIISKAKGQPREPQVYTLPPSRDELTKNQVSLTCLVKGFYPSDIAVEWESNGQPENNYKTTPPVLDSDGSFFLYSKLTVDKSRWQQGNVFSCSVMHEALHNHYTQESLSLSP
light: B1 light
notes: also called Ho Ab T335_07I
B18: GpH7-B3 variant T335_16H/GpL16-k0 (antibody, human IgG1, kappa)
heavy: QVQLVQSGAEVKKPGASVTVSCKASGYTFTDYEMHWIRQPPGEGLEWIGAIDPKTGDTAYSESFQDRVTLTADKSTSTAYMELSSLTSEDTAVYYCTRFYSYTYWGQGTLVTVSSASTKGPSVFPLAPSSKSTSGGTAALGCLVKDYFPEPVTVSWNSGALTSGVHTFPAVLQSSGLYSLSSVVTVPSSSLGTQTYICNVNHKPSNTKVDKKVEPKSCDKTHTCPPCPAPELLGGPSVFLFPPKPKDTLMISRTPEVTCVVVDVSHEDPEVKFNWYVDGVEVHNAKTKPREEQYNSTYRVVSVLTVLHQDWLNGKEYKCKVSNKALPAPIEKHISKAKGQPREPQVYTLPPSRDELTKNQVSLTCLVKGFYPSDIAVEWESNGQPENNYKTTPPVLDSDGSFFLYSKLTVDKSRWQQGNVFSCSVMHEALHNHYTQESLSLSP
light: B1 light
notes: also called Ho Ab T335_16H
B19: GpH7-B3 variant Y296_18N/GpL16-k0 (antibody, human IgG1, kappa)
heavy: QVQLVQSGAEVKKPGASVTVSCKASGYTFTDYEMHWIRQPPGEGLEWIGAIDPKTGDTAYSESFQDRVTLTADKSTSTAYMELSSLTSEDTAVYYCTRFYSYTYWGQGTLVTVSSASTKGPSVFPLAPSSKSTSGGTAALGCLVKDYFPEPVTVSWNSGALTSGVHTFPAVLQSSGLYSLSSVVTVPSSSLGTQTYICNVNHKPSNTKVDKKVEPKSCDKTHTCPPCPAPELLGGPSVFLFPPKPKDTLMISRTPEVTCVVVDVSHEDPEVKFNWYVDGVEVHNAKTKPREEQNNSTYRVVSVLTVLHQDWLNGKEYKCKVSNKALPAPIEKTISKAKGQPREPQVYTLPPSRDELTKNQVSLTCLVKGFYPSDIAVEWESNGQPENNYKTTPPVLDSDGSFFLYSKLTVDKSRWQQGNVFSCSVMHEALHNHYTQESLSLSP
light: B1 light
notes: also called Ho Ab Y296_18N
B20: GpH7-B3 variant T335_13S/GpL16-k0 (antibody, human IgG1, kappa)
heavy: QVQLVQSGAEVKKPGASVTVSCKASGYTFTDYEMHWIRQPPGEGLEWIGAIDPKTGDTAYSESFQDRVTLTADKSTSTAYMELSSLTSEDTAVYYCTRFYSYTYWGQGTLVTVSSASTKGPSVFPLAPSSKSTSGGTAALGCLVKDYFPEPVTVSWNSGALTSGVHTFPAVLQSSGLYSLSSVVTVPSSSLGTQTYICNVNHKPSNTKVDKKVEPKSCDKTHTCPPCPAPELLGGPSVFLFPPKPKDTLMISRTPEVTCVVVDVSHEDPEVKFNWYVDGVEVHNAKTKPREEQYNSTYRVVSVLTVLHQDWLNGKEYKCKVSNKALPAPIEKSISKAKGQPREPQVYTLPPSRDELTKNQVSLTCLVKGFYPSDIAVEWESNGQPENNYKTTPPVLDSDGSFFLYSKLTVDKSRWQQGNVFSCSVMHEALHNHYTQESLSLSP
light: B1 light
notes: also called Ho Ab T335_13S
B21: GpH7-B3 variant V266_07I/GpL16-k0 (antibody, human IgG1, kappa)
heavy: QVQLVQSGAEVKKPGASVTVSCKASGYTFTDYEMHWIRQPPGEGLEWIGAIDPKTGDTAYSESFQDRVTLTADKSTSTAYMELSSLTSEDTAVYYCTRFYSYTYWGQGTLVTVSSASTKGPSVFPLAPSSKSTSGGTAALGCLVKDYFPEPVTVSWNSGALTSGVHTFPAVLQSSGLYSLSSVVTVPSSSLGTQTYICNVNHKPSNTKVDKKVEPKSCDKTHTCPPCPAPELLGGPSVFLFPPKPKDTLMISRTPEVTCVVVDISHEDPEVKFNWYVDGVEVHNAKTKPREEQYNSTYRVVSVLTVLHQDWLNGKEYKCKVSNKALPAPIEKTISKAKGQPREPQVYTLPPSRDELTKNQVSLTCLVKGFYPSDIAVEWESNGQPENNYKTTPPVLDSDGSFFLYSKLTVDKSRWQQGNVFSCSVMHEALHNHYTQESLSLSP
light: B1 light
notes: also called Ho Ab V266_07I
B22: GpH7-B3 variant T335_10E/GpL16-k0 (antibody, human IgG1, kappa)
heavy: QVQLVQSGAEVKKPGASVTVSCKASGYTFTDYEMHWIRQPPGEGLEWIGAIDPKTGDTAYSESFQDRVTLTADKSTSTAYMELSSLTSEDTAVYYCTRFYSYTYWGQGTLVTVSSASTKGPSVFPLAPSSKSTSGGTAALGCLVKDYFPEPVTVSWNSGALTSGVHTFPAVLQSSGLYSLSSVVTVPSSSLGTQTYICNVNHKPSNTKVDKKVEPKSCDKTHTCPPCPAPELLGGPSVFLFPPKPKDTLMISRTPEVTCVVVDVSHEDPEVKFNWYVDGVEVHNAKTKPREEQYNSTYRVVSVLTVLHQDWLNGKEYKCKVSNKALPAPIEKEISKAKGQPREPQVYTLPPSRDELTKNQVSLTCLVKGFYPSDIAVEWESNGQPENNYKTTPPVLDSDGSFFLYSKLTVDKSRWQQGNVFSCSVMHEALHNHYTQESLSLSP
light: B1 light
notes: also called Ho Ab T335_10E
B23: GpH7-B3 variant T335_15Y/GpL16-k0 (antibody, human IgG1, kappa)
heavy: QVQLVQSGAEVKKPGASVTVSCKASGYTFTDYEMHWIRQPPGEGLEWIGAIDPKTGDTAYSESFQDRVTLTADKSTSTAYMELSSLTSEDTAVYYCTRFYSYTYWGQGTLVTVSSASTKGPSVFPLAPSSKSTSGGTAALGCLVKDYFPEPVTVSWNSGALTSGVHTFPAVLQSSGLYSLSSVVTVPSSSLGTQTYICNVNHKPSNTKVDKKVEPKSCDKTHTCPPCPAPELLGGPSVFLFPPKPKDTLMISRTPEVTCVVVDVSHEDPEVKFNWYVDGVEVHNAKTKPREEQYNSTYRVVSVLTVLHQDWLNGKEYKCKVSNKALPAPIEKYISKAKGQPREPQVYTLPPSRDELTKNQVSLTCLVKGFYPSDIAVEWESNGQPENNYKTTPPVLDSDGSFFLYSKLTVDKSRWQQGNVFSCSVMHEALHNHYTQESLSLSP
light: B1 light
notes: also called Ho Ab T335_15Y

Biological target: T1, FcγRIIa H (human, UniProt P12318 34-217)
Test: SPR Biacore, captured antibody, FcγR analyte; vs GpH7-A5/GpH7-B3/GpL16-k0 = 100

T1 sequence (P12318 34-217): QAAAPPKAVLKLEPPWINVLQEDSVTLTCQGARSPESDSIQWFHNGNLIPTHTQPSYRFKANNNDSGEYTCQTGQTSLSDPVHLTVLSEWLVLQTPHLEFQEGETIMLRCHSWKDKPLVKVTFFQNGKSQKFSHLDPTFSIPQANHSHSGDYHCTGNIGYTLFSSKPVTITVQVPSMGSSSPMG

Row | He/Con_2aH | Binder
1 | 105 % of control | B1
2 | 103 % of control | B2
3 | 102 % of control | B3
4 | 100 % of control | B4
5 | 102 % of control | B5
6 | 100 % of control | B6
7 | 102 % of control | B7
8 | 136 % of control | B8
9 | 100 % of control | B9
10 | 102 % of control | B10
11 | 101 % of control | B11
12 | 118 % of control | B12
13 | 102 % of control | B13
14 | 103 % of control | B14

Biological target: T1, FcγRIIa H
Test: SPR Biacore, captured antibody, FcγR analyte; vs GpH7-B3/GpL16-k0 = 100

Row | Ho/Con_2aH | Binder
15 | 103 % of control | B15
16 | 101 % of control | B16
17 | 105 % of control | B17
18 | 100 % of control | B18
19 | 100 % of control | B19
20 | 101 % of control | B20
21 | 104 % of control | B21
22 | 105 % of control | B22
23 | 102 % of control | B23

From US20150344570A1 (published 2015)
